Assay [1] addresses T1, full length human SIRPα v1 stably expressed on CHOK1 or 293F cells (human, UniProt P78324 31-504).
T1 construct: whole, on cells; also called CHOK1-human SIRPα v1; CHOK1-hSIRPα v1
Briefly: FACS, CHOK1-human SIRPα v1 cells. The procedure:
(§1) Species cross reactivity of the purified hybridoma antibodies against human, cyno and mouse SIRPα was determined by FACS assay using CHOK1 cells stably expressing human SIRPα v1, CHOK 1-cyno SIRPα and C57BL/6 mouse SIRPα. Briefly the antibodies were incubated with 2×10⁵ target cells at 4° C. for 1 hour. After washing, fluorescence labeled anti-mouse IgG 2nd antibody (Life Technologies) was added and incubated at 4° C. for 1 hour. Geometric median fluorescence intensity was detected and EC₅₀ was calculated using GraphPad Prism9.0. Other than HEFLB, all antibodies as tested can bind to cyno SIRPα. None of tested antibodies can bind to C57BL/6 mouse SIRPα.
A general note: In flow cytometry, cells or beads pass a laser one at a time.

In assay [2] the target is T2, Fc tagged human SIRPα v2 ECD recombinant protein (human).
T2 construct: range 1-369; also called hFc tagged human SIRPα v2 ECD
Nature of the assay: ELISA, coated Fc tagged human SIRPα v2 ECD. How it is done:
(§2) Binding specificity of the purified hybridoma antibodies against human SIRPα variants was detected by ELISA assay using recombinant proteins of Fc tagged human SIRPα v1 ECD and human SIRPα v2 ECD. Briefly the antibodies were incubated with ELISA microplate coated antigens at 37° C. for 1 hour. After washing, horseradish peroxidase (HRP) labeled anti-mouse IgG 2nd Ab (Sigma) was added and incubated at 37° C. for 1 hour. Then, 100 μl/well of TMB solution (Biotechnology) was added. After incubation for 15 minutes at room temperature, the reaction was stopped by the addition of 50 ul of 1N HCl. OD 450 nm was read and EC₅₀ was calculated using GraphPad Prism9.0. Other than HEFLB, all antibodies as tested bind to both human SIRPα v1 and human SIRPα v2. HEFLB can only bind to human SIRPα v1 but not human SIRPα v2.
A general note: An ELISA detects its analyte on a solid surface through an enzyme-linked reagent.

Assay [3] has as its target T3, Fc tagged human SIRPα v1 ECD recombinant protein (human, UniProt P78324 31-370).
T3 construct: range 1-370; also called hFc tagged human SIRPα v1 ECD; not shown: human IgG Fc (hFc) tag
Briefly: ELISA, coated Fc tagged human SIRPα v1 ECD. How it is done:
as §2

For assay [4], the target named is T4, C57BL/6 mouse SIRPα stably expressed on CHOK1 cells (C57BL/6 mouse, UniProt P97797 32-513).
T4 construct: whole, on cells; also called CHOK1-C57BL/6 mouse SIRPα
T4 sequence (looked up): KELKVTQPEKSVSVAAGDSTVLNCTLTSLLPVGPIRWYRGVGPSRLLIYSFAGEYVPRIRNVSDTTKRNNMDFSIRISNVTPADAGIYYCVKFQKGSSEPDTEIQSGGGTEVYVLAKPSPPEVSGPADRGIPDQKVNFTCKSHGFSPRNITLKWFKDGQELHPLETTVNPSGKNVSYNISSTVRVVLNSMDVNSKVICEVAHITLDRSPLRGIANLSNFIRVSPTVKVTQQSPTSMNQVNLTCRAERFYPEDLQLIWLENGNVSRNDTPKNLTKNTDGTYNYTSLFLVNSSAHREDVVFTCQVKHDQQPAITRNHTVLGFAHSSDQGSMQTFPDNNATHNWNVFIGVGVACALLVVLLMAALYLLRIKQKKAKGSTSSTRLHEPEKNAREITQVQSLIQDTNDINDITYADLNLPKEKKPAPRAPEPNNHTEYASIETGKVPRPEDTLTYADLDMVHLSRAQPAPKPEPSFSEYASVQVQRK
Briefly: FACS, CHOK1-C57BL/6 mouse SIRPα cells, MFI at 100 nM. How it is done:
as §1

For assay [5], the target named is full length human SIRPα v1 with a small beta-gal fragment (ED) fused to its C-terminal, expressed in K562 … (human, UniProt P78324 31-504). Nature of the assay: cell-based or functional assay.
Assay [6] addresses T5, human SIRPα v1 ECD recombinant protein (tag not given) (human, UniProt P78324 31-373).
T5 construct: extracellular domain; also called biotin labeled soluble human SIRPα v1 ECD recombinant protein; ELISA microplate coated human SIRPα v1 ECD
Briefly: competitive ELISA, biotin human SIRPα v1 ECD on coated human CD47 ECD. The procedure:
Competitive ELISA assay was used to determine whether the purified hybridoma antibodies can block CD47 and SIRPα interaction. Briefly, antibody and biotin labeled soluble human SIRPα v1 ECD recombinant protein were co-incubated with ELISA microplate coated human CD47 ECD recombinant protein. After washing, HRP labeled streptavidin (HRP-SA, Sigma) was added and incubated at 37° C. for 1 hour. Then, 100 μl/well of TMB solution (Biotechnology) was added. After incubation for 15 minutes at room temperature, the reaction was stopped by the addition of 50 μl of 1N HCl. OD 450 nm was read. The blocking ratios were determined by blockade of biotin labeled human SIRPα v1 ECD recombinant protein binding to ELISA microplate coated human CD47 ECD recombinant protein. Other than 005, all antibodies as tested can block human CD47 and human SIRPα v1 interaction.

Assay [7] concerns the target T1, full length human SIRPα v1 stably …. Nature of the assay: competitive FACS, mFc-CD47 ECD on CHOK1-human SIRPα v1 cells. The procedure: Competitive FACS assay was also set up to further compare the blocking activity of the humanized antibodies and reference antibodies. Briefly antibody and mFc tagged human CD47 ECD recombinant protein were co-incubated with CHOK1 cells stably expressing human SIRPα v1 (FIG. 16A) or human SIRPα v2 (FIG. 16B). After washing, dye labeled anti-mouse Fc 2nd antibody (Sigma) was added and incubated at 37° C. for 1 hour. Fluorescence intensity was detected. Blocking ratio was determined by blockade of human CD47 ECD recombinant protein binding to SIRPα expressed CHOK1 cells. […] In particular, HEFLB doesn't work at all for human SIRPα v2.

Positions count from the first letter of the chain named.

The EC50 is the concentration needed to bring the measured effect to its halfway point. As usually defined, the IC50 is the concentration that gives 50% inhibition.

T3 sequence (P78324 31-370 limits assumed): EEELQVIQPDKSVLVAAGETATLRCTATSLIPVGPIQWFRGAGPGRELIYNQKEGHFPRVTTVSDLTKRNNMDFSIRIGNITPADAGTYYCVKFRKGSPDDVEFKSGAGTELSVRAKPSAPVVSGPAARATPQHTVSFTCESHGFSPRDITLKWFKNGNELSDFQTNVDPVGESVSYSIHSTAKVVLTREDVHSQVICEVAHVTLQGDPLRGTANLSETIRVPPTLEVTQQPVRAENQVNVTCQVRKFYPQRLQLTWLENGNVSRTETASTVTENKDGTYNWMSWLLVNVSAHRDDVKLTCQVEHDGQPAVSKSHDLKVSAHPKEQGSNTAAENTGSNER
T5 sequence (P78324 31-373): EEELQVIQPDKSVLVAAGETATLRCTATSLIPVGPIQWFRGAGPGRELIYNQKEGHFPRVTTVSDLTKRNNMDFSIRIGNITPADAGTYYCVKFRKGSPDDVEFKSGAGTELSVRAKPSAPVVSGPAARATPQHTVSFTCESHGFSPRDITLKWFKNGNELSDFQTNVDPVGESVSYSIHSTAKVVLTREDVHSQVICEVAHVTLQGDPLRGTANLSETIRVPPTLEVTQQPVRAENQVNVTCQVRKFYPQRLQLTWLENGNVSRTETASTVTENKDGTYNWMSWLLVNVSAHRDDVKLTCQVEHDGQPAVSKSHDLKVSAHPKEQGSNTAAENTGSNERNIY
full length human SIRPα v1 with a small beta-gal fragment (ED) fused to its C-terminal, expressed in K562 …, sequence (P78324 31-504): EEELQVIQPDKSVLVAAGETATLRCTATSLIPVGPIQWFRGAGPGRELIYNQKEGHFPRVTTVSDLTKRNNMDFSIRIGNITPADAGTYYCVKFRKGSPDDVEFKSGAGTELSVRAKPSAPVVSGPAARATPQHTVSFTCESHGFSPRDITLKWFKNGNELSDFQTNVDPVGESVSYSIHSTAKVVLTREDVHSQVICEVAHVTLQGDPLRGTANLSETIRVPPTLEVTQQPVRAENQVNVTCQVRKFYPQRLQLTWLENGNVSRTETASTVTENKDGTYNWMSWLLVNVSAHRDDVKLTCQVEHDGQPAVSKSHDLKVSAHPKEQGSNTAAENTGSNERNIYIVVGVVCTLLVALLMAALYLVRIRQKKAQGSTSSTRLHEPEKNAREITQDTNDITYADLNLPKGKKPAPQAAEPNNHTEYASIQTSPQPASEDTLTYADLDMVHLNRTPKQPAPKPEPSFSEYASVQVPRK
T1 sequence (P78324 31-504): as above

B1: 005 (antibody, V domains shown)
VH: EVKLVESGGGLVQPGGSLSLSCAASGFTFTDYYMSWVRQPPGKALEWLGFIKNEANGYTTESSASVKGRFTISRDNSQSILYLQMNALRAEDSATYYCARYDYYGSNYNWYFDAWGTGTTVTVSS
VL: DIVMTQSQKFMSPSVGDRVSITCKASQNVRTAVAWYQQKPGQSPKVLIHLASKRHTGVPDRFTGSGSGTDFTLTISNVQSEDLADYFCLQHWIHPLTFGAGTKLELK
notes: Mouse monoclonal hybridoma antibody purified on Protein A; also called antibody 005; hybridoma antibody 005
B1: the EC50 worked out at 1.8 nM in assay [1], 0.12 nM in assay [2] and 0.13 nM in assay [3]. Also, the binding result in assay [4] is given as “no binding (tested: 100 nM)”. Also, the “SHP-1 recruitment (% blocking), Test I” value in assay [5] was 71%. For the same molecule, in assay [5], the “SHP-1 recruitment (% blocking), Test II” value stood at 82.7%.

B2: 071 (antibody, V domains shown)
VH: QIQLVQSGPELKKPGETVKISCKASGYTFTTYGMSWVKQAPGKGLKWMVWINTYSGVPTYADDFQGRFAFSLETSASTSYLQINNLRNEDTATYFCARDPHYYGTSPAWFAYWGQGTLVTVSA
VL: DIVMTQSQKFMSTTIGDRVIITCKASQIVGIAVAWYQQKPGQSPKLLIYSASNRFTGVPDRFTGSGSGTDFTLTISNMQSEDLADYFCQQYSTYPFTFGSGTKLEIK
notes: Mouse monoclonal hybridoma antibody; also called antibody 071; hybridoma antibody 071
For the molecule B2, the EC50 in assay [1] was 0.2 nM; in assay [2], 0.02 nM; in assay [3], 0.03 nM. The binding result in assay [4] is “no binding (tested: 100 nM)”. Further, in assay [5], the “SHP-1 recruitment (% blocking), Test I” value was 77.2%. In addition, in assay [5], the “SHP-1 recruitment (% blocking), Test II” value turned out to be 72.6%. Further, in assay [6], the IC50 is 0.17 nM.

B3: 042 (antibody, V domains shown)
VH: QIQLVQSGPELKKPGETVKISCRASGYTFTTYGMSWVKQAPGKGLRWMGWINTYSGVSTCADDFKGRFAFSLETSATTAYLQIHNLTNEDTATYFCARDPHSYGNSPAWFPYWGQGTLVTVSA
VL: B2 VL with G16R, I20S, I28N, A32S, P40S, F55Y, T93S, F96L, E105A
notes: Mouse monoclonal hybridoma antibody; also called antibody 042; hybridoma antibody 042
For the molecule B3, the values for the EC50 in assay [1], in assay [2] and in assay [3] were 0.2 nM, 0.03 nM and 0.03 nM, respectively. Also, the binding result in assay [4] is recorded as “no binding (tested: 100 nM)”. For the same molecule, in assay [5], the “SHP-1 recruitment (% blocking), Test I” value stood at 84.8%. Further, the “SHP-1 recruitment (% blocking), Test II” value in assay [5] came to 76.1%. Besides, the IC50 in assay [6] came out at 0.14 nM.

B4: 073 (antibody, V domains shown)
VH: B2 VH with Q65K, R87K, T105S, A111V
VL: B2 VL with I20S, K24E, F55Y, D85N, T93A, I106V
notes: Mouse monoclonal hybridoma antibody; also called antibody 073; hybridoma antibody 073
Take B4: the results for the EC50 in assay [1], in assay [2] and in assay [3] were 0.2 nM, 0.03 nM and 0.03 nM, respectively. For the same molecule, the binding result in assay [4] is “no binding (tested: 100 nM)”. In addition, in assay [5], the “SHP-1 recruitment (% blocking), Test I” value was determined as 76.9%. Moreover, the “SHP-1 recruitment (% blocking), Test II” value in assay [5] is 75.9%. Also, in assay [6], the IC50 came out at 0.16 nM.

B5: HEFLB (antibody, V domains shown)
VH: EVQLVQSGAEVKKPGESLRISCKASGYSFTSYWVHWVRQMPGKGLEWMGNIDPSDSDTHYSPSFQGHVTLSVDKSISTAYLQLSSLKASDTAMYYCVRGGTGTLAYFAYWGQGTLVTVSS
VL: DVVMTQSPLSLPVTLGQPASISCRSSQSLVHSYGNTYLYWFQQRPGQSPRLLIYRVSNRFSGVPDRFSGSGSGTDFTLKISRVEAEDVGVYYCFQGTHVPYTFGGGTKVEIK
Turning to B5, the EC50 in assay [1] was determined as 11.2 nM; in assay [3] it was 0.17 nM. The figures for the IC50 in assay [7] and in assay [6] were 0.94 nM and 0.5 nM, respectively. The “TOP blocking (%)” value in assay [7] was found to be 97.6%. The binding result in assay [4] is “no binding (tested: 100 nM)”. The “SHP-1 recruitment (% blocking), Test I” value in assay [5] turned out to be 46.8%. The “SHP-1 recruitment (% blocking), Test II” value in assay [5] turned out to be 50.3%.

B6: 015 (antibody, V domains shown)
VH: EVQLQQSGVEVVQPGASVKLSCTASGFNIEAYYMHWVKQRTEQGLEWIGRIDPEDGESKYAPKFQGKATMTADTSSSTAYLQLSSLTSDDTAVYYCVRGSYEYWGQGTTLTVSS
VL: QIVLTQSPAIMSASPGEKVTLTCSASSSVSSSYLYWYQQKPGSSPKLWIYSTSNLASGVPPRFSGSGSGTSYSLTISSMQAEDAASYFCYQWSSYPYTFGGGTKLEIK
notes: Mouse monoclonal hybridoma antibody; also called antibody 015; hybridoma antibody 015
As to B6, the values for the EC50 in assay [1], in assay [2] and in assay [3] were 1 nM, 0.15 nM and 0.1 nM, respectively. Moreover, the binding result in assay [4] is reported as “no binding (tested: 100 nM)”. Besides, the “SHP-1 recruitment (% blocking), Test I” value in assay [5] is 83.6%. In addition, the “SHP-1 recruitment (% blocking), Test II” value in assay [5] turned out to be 89.6%. Also, the IC50 in assay [6] worked out at 0.3 nM.

B7: 025 (antibody, V domains shown)
VH: EVQLQQSGAELVKPGASVKLSCTASGFNIKDYYMHWVKQRTEQGLEWIGRIDPEDGETKYAPKFQGKATITADTSSNTAYLQLSSLTSEDTAVYYCDRGLAYWGQGTLVTVSA
VL: B6 VL with P61A, Q80E, Y90H
notes: Mouse monoclonal hybridoma antibody; also called antibody 025; hybridoma antibody 025
B7: the EC50 came out at 0.9 nM in assay [1], 0.06 nM in assay [2] and 0.04 nM in assay [3]. Further, the binding result in assay [4] is “no binding (tested: 100 nM)”. Moreover, the “SHP-1 recruitment (% blocking), Test I” value in assay [5] stood at 83.9%. The “SHP-1 recruitment (% blocking), Test II” value in assay [5] was determined as 91.2%. The IC50 in assay [6] stood at 0.15 nM.

B8: 059 (antibody, V domains shown)
VH: QVQLQQSGPELVKPGASVKMSCKASGYTFSEYVLSWVKQRTGQGLEWIGEIYPGTITTYYNEKFKGKATLTADKSSNTAYIQLTSLTSEDSAVYFCGRFYDYDGGWFAYWGQGTLLTVSA
VL: ENVLTQSPEKMAVSLGQKVTMTCSASSSVSSSDLHWYQQKSGASPKPLIHGTSNLASGVPARFSGSGSGTSYSLTISSVEAEDAATYYCQQWSGYPWTFGGGTNLEIK
notes: Mouse monoclonal hybridoma antibody; also called antibody 059; hybridoma antibody 059
With B8, the EC50 in assay [1] is 0.1 nM; in assay [2], 0.1 nM; in assay [3], 0.03 nM. Further, in assay [4], the binding result is reported as “no binding (tested: 100 nM)”. Further, the “SHP-1 recruitment (% blocking), Test I” value in assay [5] was 77.5%. The “SHP-1 recruitment (% blocking), Test II” value in assay [5] stood at 80.2%. For the same molecule, the IC50 in assay [6] amounted to 0.12 nM.

(Values after patent US20250270315A1 (ELPISCIENCE SUZHOU BIOPHARMA, published 2025).)
